Laboratory results from the supplement of paper PMC11246515.
± gives the standard deviation of the averaged measurements.

Experiment: total protein half-life in vivo (active degradation + dilution); higher = more stable protein
[1] = E. coli NCM3722 delta-clpP delta-lon delta-hslV, growth: N-lim chemostat, doubling time 6 h
[2] = E. coli NCM3722 delta-clpP, growth: N-lim chemostat, doubling time 6 h
[3] = E. coli NCM3722 delta-hslV, growth: N-lim chemostat, doubling time 6 h
[4] = E. coli NCM3722 delta-lon, growth: N-lim chemostat, doubling time 6 h
[5] = E. coli NCM3722 delta-smpB, growth: N-lim chemostat, doubling time 6 h
[6] = wild type E. coli NCM3722, growth: C-lim chemostat, doubling time 3 h
[7] = wild type E. coli NCM3722, growth: C-lim chemostat, doubling time 6 h
[8] = wild type E. coli NCM3722, growth: C-lim chemostat, doubling time 12 h
[9] = wild type E. coli NCM3722, growth: N-lim chemostat, doubling time 6 h
[10] = wild type E. coli NCM3722, growth: N-lim chemostat, doubling time 12 h
[11] = wild type E. coli NCM3722, growth: P-lim chemostat, doubling time 6 h
[12] = wild type E. coli NCM3722, growth: P-lim chemostat, doubling time 12 h

Sequence	total protein half-life in vivo [1]	total protein half-life in vivo [2]	total protein half-life in vivo [3]	total protein half-life in vivo [4]	total protein half-life in vivo [5]	total protein half-life in vivo [6]	total protein half-life in vivo [7]	total protein half-life in vivo [8]	total protein half-life in vivo [9]	total protein half-life in vivo [10]	total protein half-life in vivo [11]	total protein half-life in vivo [12]
MKLNDSNLFRQQALINGEWLDANNGEAIDVTNPANGDKLGSVPKMGADETRAAIDAANRALPAWRALTAKERATILRNWFNLMMEHQDDLARLMTLEQGKPLAEAKGEISYAASFIEWFAEEGKRIYGDTIPGHQADKRLIVIKQPIGVTAAITPWNFPAAMITRKAGPALAAGCTMVLKPASQTPFSALALAELAIRAGVPAGVFNVVTGSAGAVGNELTSNPLVRKLSFTGSTEIGRQLMEQCAKDIKKVSLELGGNAPFIVFDDADLDKAVEGALASKFRNAGQTCVCANRLYVQDGVYDRFAEKLQQAVSKLHIGDGLDNGVTIGPLIDEKAVAKVEEHIADALEKGARVVCGGKAHERGGNFFQPTILVDVPANAKVSKEETFGPLAPLFRFKDEADVIAQANDTEFGLAAYFYARDLSRVFRVGEALEYGIVGINTGIISNEVAPFGGIKASGLGREGSKYGIEDYLEIKYMCIGL	4.773 ± 0.035 h	4.35 ± 0.32 h	3.93 ± 0.08 h	4.251 ± 0.0095 h	3.87 ± 0.14 h	2.86 ± 0.26 h	5.44 ± 0.58 h	9.938 ± 0.016 h	3.96 ± 0.29 h	5.95 ± 0.61 h	5.72 ± 0.12 h	11 ± 0.44 h
MMDSLRTAANSLVLKIIFGIIIVSFILTGVSGYLIGGGNNYAAKVNDQEISRGQFENAFNSERNRMQQQLGDQYSELAANEGYMKTLRQQVLNRLIDEALLDQYARELKLGISDEQVKQAIFATPAFQVDGKFDNSRYNGILNQMGMTADQYAQALRNQLTTQQLINGVAGTDFMLKGETDELAALVAQQRVVREATIDVNALAAKQPVTEQEIASYYEQNKNNFMTPEQFRVSYIKLDAATMQQPVSDADIQSYYDQHQDQFTQPQRTRYSIIQTKTEDEAKAVLDELNKGGDFAALAKEKSADIISARNGGDMGWLEDATIPDELKNAGLKEKGQLSGVIKSSVGFLIVRLDDIQPAKVKSLDEVRDDIAAKVKHEKALDAYYALQQKVSDAASNDTESLAGAEQAAGVKATQTGWFSKDNLPEELNFKPVADAIFNGGLVGENGAPGINSDIITVDGDRAFVLRISEHKPEAVKPLADVQEQVKALVQHNKAEQQAKVDAEKLLVDLKAGKGAEAMQAAGLKFGEPKTLSRSGRDPISQAAFALPLPAKDKPSYGMATDMQGNVVLLALDEVKQGSMPEDQKKAMVQGITQNNAQIVFEALMSNLRKEAKIKIGDALEQQ [P0ADY1]	6.92 ± 0.99 h	6.533 ± 0.039 h	5.89 ± 0.078 h	6.39 ± 0.26 h	6.15 ± 0.67 h	3.05 ± 0.23 h	5.96 ± 0.096 h	12.7 ± 1.2 h	6.17 ± 0.25 h	12.8 ± 1.7 h	5.92 ± 0.088 h	12.4 ± 0.2 h
MKTFFRTVLFGSLMAVCANSYALSESEAEDMADLTAVFVFLKNDCGYQNLPNGQIRRALVFFAQQNQWDLSNYDTFDMKALGEDSYRDLSGIGIPVAKKCKALARDSLSLLAYVK [P0AA95]	3.21 ± 0.054 h	3.39 ± 0.072 h	6.81 h	2.74 h	3.47 ± 0.12 h		3.61 ± 0.71 h	4.74 h	3.1 ± 0.091 h	5.56 ± 1.2 h	3.21 ± 0.85 h	5.86 ± 0.72 h
MLFTLKKVIGNMLLPLPLMLLIIGAGLALLWFSRFQKTGKIFISIGWLALLLLSLQPVADRLLRPIESTYPTWNNSQKVDYIVVLGGGYTWNPQWAPSSNLINNSLPRLNEGIRLWRENPGSKLIFTGGVAKTNTVSTAEVGARVAQSLGVPREQIITLDLPKDTEEEAAAVKQAIGDAPFLLVTSASHLPRAMIFFQQEGLNPLPAPANQLAIDSPLNPWERAIPSPVWLMHSDRVGYETLGRIWQWLKGSSGEPRQE [P0AB01]	6.15 ± 0.43 h	6.08 ± 0.23 h		5.87 ± 0.097 h	5.72 ± 0.58 h	3.28 ± 0.37 h	5.4 ± 0.28 h	10.5 ± 4.9 h	6.09 ± 0.25 h		6.876 ± 0.0024 h	10.6 ± 2.9 h
MSSTLREASKDTLQAKDKTYHYYSLPLAAKSLGDITRLPKSLKVLLENLLRWQDGNSVTEEDIHALAGWLKNAHADREIAYRPARVLMQDFTGVPAVVDLAAMREAVKRLGGDTAKVNPLSPVDLVIDHSVTVDRFGDDEAFEENVRLEMERNHERYVFLKWGKQAFSRFSVVPPGTGICHQVNLEYLGKAVWSELQDGEWIAYPDTLVGTDSHTTMINGLGVLGWGVGGIEAEAAMLGQPVSMLIPDVVGFKLTGKLREGITATDLVLTVTQMLRKHGVVGKFVEFYGDGLDSLPLADRATIANMSPEYGATCGFFPIDAVTLDYMRLSGRSEDQVELVEKYAKAQGMWRNPGDEPIFTSTLELDMNDVEASLAGPKRPQDRVALPDVPKAFAASNELEVNATHKDRQPVDYVMNGHQYQLPDGAVVIAAITSCTNTSNPSVLMAAGLLAKKAVTLGLKRQPWVKASLAPGSKVVSDYLAKAKLTPYLDELGFNLVGYGCTTCIGNSGPLPDPIETAIKKSDLTVGAVLSGNRNFEGRIHPLVKTNWLASPPLVVAYALAGNMNINLASEPIGHDRKGDPVYLKDIWPSAQEIARAVEQVSTEMFRKEYAEVFEGTAEWKGINVTRSDTYGWQEDSTYIRLSPFFDEMQATPAPVEDIHGARILAMLGDSVTTDHISPAGSIKPDSPAGRYLQGRGVERKDFNSYGSRRGNHEVMMRGTFANIRIRNEMVPGVEGGMTRHLPDSDVVSIYDAAMRYKQEQTPLAVIAGKEYGSGSSRDWAAKGPRLLGIRVVIAESFERIHRSNLIGMGILPLEFPQGVTRKTLGLTGEEKIDIGDLQNLQPGATVPVTLTRADGSQEVVPCRCRIDTATELTYYQNDGILHYVIRNMLK	5.26 ± 0.24 h	4.44 ± 0.1 h	4.73 ± 0.14 h	4.71 ± 0.15 h	4.362 ± 0.015 h	3.14 ± 0.26 h	5.47 ± 0.13 h	9.9 ± 0.64 h	4.65 ± 0.17 h	7.39 ± 0.19 h	5.81 ± 0.33 h	11 ± 0.17 h
MLNYVIKRLLGLIPTLFIVSVLVFLFVHMLPGDPARLIAGPEADAQVIELVRQQLGLDQPLYHQFWHYISNAVQGDFGLSMVSRRPVADEIASRFMPTLWLTITSMVWAVIFGMAAGIIAAVWRNRWPDRLSMTIAVSGISFPAFALGMLLIQVFSVELGWLPTVGADSWQHYILPSLTLGAAVAAVMARFTRASFVDVLSEDYMRTARAKGVSETWVVLKHGLRNAMIPVVTMMGLQFGFLLGGSIVVEKVFNWPGLGRLLVDSVEMRDYPVIQAEILLFSLEFILINLVVDVLYAAINPAIRYK	6.23 ± 0.21 h	5.94 ± 1 h	6.89 ± 0.77 h	6.12 ± 1.5 h	5.48 ± 0.069 h	3.13 ± 0.44 h	6.58 ± 0.59 h	11.4 ± 1.1 h	5.84 ± 0.41 h	11.1 ± 0.85 h	5.68 h	12.6 ± 1.1 h
MKIKSIRKAVLLLALLTSTSFAAGKNVNVEFRKGHSSAQYSGEIKGYDYDTYTFYAKKGQKVHVSISNEGADTYLFGPGIDDSVDLSRYSPELDSHGQYSLPASGKYELRVLQTRNDARKNKTKKYNVDIQIK	5.26 ± 0.85 h	6.18 ± 1.5 h	6.58 ± 0.55 h	5.92 ± 0.064 h	5.41 ± 2.6 h	3.4 ± 0.059 h	5.32 ± 0.57 h	9.98 ± 4 h	6.12 ± 0.28 h	11 ± 4.1 h	4.9 ± 0.38 h	11.1 ± 0.15 h
MNELDGIKQFTTVVADSGDIESIRHYHPQDATTNPSLLLKAAGLSQYEHLIDDAIAWGKKNGKTQEQQVVAACDKLAVNFGAEILKIVPGRVSTEVDARLSFDKEKSIEKARHLVDLYQQQGVEKSRILIKLASTWEGIRAAEELEKEGINCNLTLLFSFAQARACAEAGVFLISPFVGRIYDWYQARKPMDPYVVEEDPGVKSVRNIYDYYKQHHYETIVMGASFRRTEQILALTGCDRLTIAPNLLKELQEKVSPVVRKLIPPSQTFPRPAPMSEAEFRWEHNQDAMAVEKLSEGIRLFAVDQRKLEDLLAAKL [P0A867]	5.487 ± 0.013 h	5.51 ± 0.43 h	5.35 ± 0.25 h	5.76 ± 0.63 h	5.19 ± 0.4 h	3.12 ± 0.12 h	5.95 ± 0.33 h	11.7 ± 0.016 h	5.19 ± 0.21 h	9.85 ± 1.3 h	5.9 ± 0.16 h	12.8 ± 0.16 h
MSHHHEGCCKHEGQPRHEGCCKGEKSEHEHCGHGHQHEHGQCCGGRHGRGGGRRQRFFGHGELRLVILDILSRDDSHGYELIKAIENLTQGNYTPSPGVIYPTLDFLQEQSLITIREEEGGKKQIALTEQGAQWLEENREQVEMIEERIKARCVGAALRQNPQMKRALDNFKAVLDLRVNQSDISDAQIKKIIAVIDRAAFDITQLD	4.91 ± 0.66 h		3.22 ± 0.047 h	4.273 ± 0.011 h	3.33 ± 0.41 h	2.55 ± 0.029 h	4.67 ± 0.56 h	8.76 ± 2.2 h	3.65 ± 0.74 h	5.05 ± 0.53 h	4.8 ± 0.27 h	8.64 ± 0.59 h
MAKNIPFKLILEKAKDYQADMTRFLRDMVAIPSESCDEKRVVHRIKEEMEKVGFDKVEIDPMGNVLGYIGHGPRLVAMDAHIDTVGIGNIKNWDFDPYEGMETDELIGGRGTSDQEGGMASMVYAGKIIKDLGLEDEYTLLVTGTVQEEDCDGLCWQYIIEQSGIRPEFVVSTEPTDCQVYRGQRGRMEIRIDVQGVSCHGSAPERGDNAIFKMGPILGELQELSQRLGYDEFLGKGTLTVSEIFFTSPSRCAVADSCAVSIDRRLTWGETWEGALDEIRALPAVQKANAVVSMYNYDRPSWTGLVYPTECYFPTWKVEEDHFTVKALVNAYEGLFGKAPVVDKWTFSTNGVSIMGRHGIPVIGFGPGKEPEAHAPNEKTWKSHLVTCAAMYAAIPLSWLATE			3.34 ± 0.23 h	> 8 h	3.6 h	2.93 ± 0.037 h	5.23 ± 1.1 h	8.78 ± 0.98 h	3.7 ± 0.69 h	6.26 ± 0.46 h	5.23 h	9.14 ± 1.7 h
